Like-named read-outs stand apart in the source and are kept apart here.
Experiments:
[1] = test system: CYP1A; assay: Tissue immunohistochemistry, Gulf killifish liver; settings: crude oil-exposed adult gulf killifish vs genetically resistant population; FIG. 3 panels E and F
Method: (§1) Grossly dissected archived tissues (fixed and stored at 4° C. in 70% ethanol) were processed and embedded in ParaPlast Extra. Newly embedded tissues were then sectioned and affixed to charged slides for immunohistochemistry. Mouse liver tissues used for this study were from previous studies wherein mice were exposed to 1 mg/kg PCB-126 prior to tissue fixation. Archived rainbow trout livers (and microsomes stored at −80° C. from beta-naphthoflavone ([…])-treated animals from a previous study (Rice et al. 1998 Mar. environ. Res. 46:87-91) were used for immunohistochemistry and immunoblotting. Archived liver tissue from Gulf killifish collected from sites affected by the Deepwater Horizon spill (DHOS) were analyzed for CYP1A alongside livers from a lab-held colony of CYP1A-recalcitrant Gulf killifish, which is used as a molecular control (naturally acquired CYP1A knockdown) (Oziolor et al. 2016 Aquat. Toxicol. 175:222-231). Finally, previously analyzed embryonic chicken livers exposed to airborne volatiles from DHOS oil were included for additional species comparison.
(§2) Zebrafish (strain AB) exposed to PCB-126 (Ulra Scientific) were also used for this study. Zebrafish were housed at the former Clemson Institute of Environmental Toxicology, Pendleton SC and maintained under Clemson University IACUC approved methods. […]

[2] = test system: zebrafish CYP1A peptide used for immunizations
Excerpt: Primary hybridoma supernatants were then screened by ELISA against unconjugated peptide for a minimal signal of three-fold optical density readings above wells probed with an irrelevant antibody (mAb 3F9 against major vault protein), then cloned by limiting dilution for further testing.

[3] = test system: induced CYP1A1 across vertebrate taxa; assay type: binding
Method: Screening mAbs against cell line lysates: […] This medium also supports the growth of frog XLK-WG cells (ATCC, Manassas, VA, USA). Other cells and tissues used for testing and screening are outlined in Table 2. Arochlor 1254-induced and non-induced rat liver S9 fractions were thawed immediately upon receipt from the supplier and prepared for SDS-PAGE-immunoblotting by boiling for 7 min in reducing sample buffer (Thermo Fisher J61337.AD) containing 50 μM PMSF. Commercially sourced HEK cell lysates over-expressing recombinant human CYP1A1 (Origene, Rockville, MD, USA) were prepared similarly. […]-1, and HEPA1C1C7 cells were grown to near confluence in 6-well plates ([…], Corning). Plates seeded with ZFL cells and PLHC-1 cells were sealed with parafilm and kept in sealed containers to avoid external CO2. Cells were treated for 48 h with 10 μM PCB-126 (CAS 57465-28-8, Ultra Scientific) dissolved in DMSO or 0.01% DMSO as a carrier control. XLK-WG cells were grown to near confluence in sealed T-75 flasks, then treated for 12 h with 50 nM of the AHR ligand 6-Formylindolo [3,2-b] carbazole (FICZ) (CAS 172922-91-7, Tocris Biosciences, Bristol, UK) in DMSO or 0.01% DMSO, and again for an additional 12 h with the same. […] Overlying supernatants were removed and transferred to clean tubes and the protein content quantified. […]

[4] = molecular target: T1, CYP1A (Mus musculus, UniProt P00184)
T1 sequence (P00184 1-524): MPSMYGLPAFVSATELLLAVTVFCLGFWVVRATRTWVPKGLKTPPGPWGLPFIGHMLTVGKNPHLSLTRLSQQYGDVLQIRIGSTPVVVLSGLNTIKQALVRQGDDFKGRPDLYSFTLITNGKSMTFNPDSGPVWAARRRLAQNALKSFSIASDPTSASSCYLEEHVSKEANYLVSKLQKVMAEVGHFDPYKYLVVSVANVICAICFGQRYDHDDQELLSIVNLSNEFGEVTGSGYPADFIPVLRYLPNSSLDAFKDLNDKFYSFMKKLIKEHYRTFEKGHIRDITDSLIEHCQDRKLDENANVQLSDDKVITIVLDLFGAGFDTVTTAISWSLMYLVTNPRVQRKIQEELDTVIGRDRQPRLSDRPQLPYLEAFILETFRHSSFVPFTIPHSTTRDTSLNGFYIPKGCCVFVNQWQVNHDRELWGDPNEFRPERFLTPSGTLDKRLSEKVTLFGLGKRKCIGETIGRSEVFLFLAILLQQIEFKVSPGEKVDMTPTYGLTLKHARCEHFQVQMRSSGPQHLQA
Method: as §1
(§3) Zebrafish (strain AB) exposed to PCB-126 (Ulra Scientific) were also used for this study. Zebrafish were housed at the former Clemson Institute of Environmental Toxicology, Pendleton SC and maintained under Clemson University IACUC approved methods. Two juvenile male and two juvenile female zebrafish (40 dpf) were exposed for 48 h to either 10 μM PCB-126 or 0.10% DMSO in 1 L glass bottles containing maintenance water from the recirculating system and supplied with gentle aeration. Following exposure, the 4 fish per treatment were euthanized on ice with buffered Tricaine®, their abdominal cavities opened, and placed in 10% aqueous buffered zinc formalin (Z-Fix, Anatech, Ltd., Battle Creek, MI, USA) for 2 days, and the fixative replaced with 70% ethanol and stored at 4° C. Prior to processing, zebrafish were decalcified in 0.35 M EDTA, pH 7.8 at room temperature (RT) for 6 days, then processed for microtomy as above. Fish and chicken tissue IHC was performed using a horse-anti-mouse IgG VectaLabs ABC-Elite kit (PK-6102), while mouse tissue IHC was performed using the mouse-on-mouse (M.O.M.) anti-mouse IgG VectaLabs ABC-Ultra kit (BMK-2202)
(§4) Whole zebrafish tissues were sectioned at 7-9 μm and mouse, trout, killifish, and chicken tissues were sectioned at 4-5 μm on a Microm 325 rotary microtome. […] Additional screening assays included isotype controls.

[5] = test system: CYP1A
Method: as §1, §3, §4

[6] = test system: CYP1A; assay: Tissue immunohistochemistry, rainbow trout liver; settings: rainbow trout treated with 3-NF; FIG. 3 panels G and H
Method: as §1, §2

[7] = molecular target: core vertebrate CYP1A sequence IRDITSLI (SEQ ID NO:35) (Homo sapiens, UniProt P04798); assay: ELISA against conserved core CYP1A peptide; assay type: binding; settings: FIG. 1 panel B
Method: Using additional screening approaches, ELISAs were carried out to determine if either of the three mAbs would recognize the core vertebrate CYP1A sequence [sequence] (SEQ ID NO:35)). […] Based on the general rule of thumb that confluent supernatants contain approximately 30 μg/mL of specific antibody, a total of 60 μg of the peptide in 100 μL PBS as the highest concentration was serially diluted and 50 μL of each dilution were mixed with 50 μL confluent supernatants to yield 100 μL of total mixture for screening ELISA plates coated with the original zebrafish peptide. This mixture of hybridoma supernatant and peptide dilutions was allowed to incubate overnight at 4° C. The next day these mixtures of 100 μL total sample were mixed by gentle agitation and added to zebrafish CYP1A1 peptide-pre-coated ELISA plates and incubated for 2 h at RT. After extensive washings with PBST, the plates were incubated with goat anti-mouse IgG conjugated with alkaline phosphatase for 2 h, washed extensively, and developed and quantified at 405 nm and the data recorded.

zebrafish CYP1A peptide used for immunizations, sequence (as listed by the source): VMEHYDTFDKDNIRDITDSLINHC

B1: mAb CRC4: zebrafish CYP1A-targeted mouse monoclonal antibody; VH SEQ ID NO:17, VL SEQ ID NO:20, CDRs SEQ ID NOs:28-33 (antibody, V domains shown)
VH: QVTLKESGPGILQPSQTLSLTCSFSGFSLSTSGMGVNWIRKPSGKGLEWLAHIFWDDDKRYNPSLKSRLTISKDTSRNQVFLMITSVDTADTATYYCASLAMDYWGQGTSVTVSS
VL: DIVMTQGASSVTVTPGESVSISCRSSKSLLHSNGRTFLYWFLQRPGQSPQLLIYRMSNLASGVPDRVSGSGSGTAFTLRISRVEAEDVGVYYCMQHLEYPFTFGGGTRLELK
CYP1A detection in liver by IHC [1]: easily detected in adult gulf killifish but not in individuals from a genetically resistant population
ELISA reactivity against zebrafish CYP1A peptide (selection criteria) [2]: meeting selection criteria
recognition of treatment-induced CYP1A protein by immunoblotting [3]: recognized by mAb CRC4 across all vertebrate taxa examined
CYP1A detection in liver by IHC [4]: easily detected in PCB-126-exposed mouse livers but not unexposed controls
CYP1A detection in liver by IHC [5]: easily detected
CYP1A staining intensity in liver by IHC [5]: most intense staining
staining after antigen retrieval [5]: more favorable staining
staining intensity of chicken tissues compared with mAb C10-7 [5]: same intensity as seen using mAb C10-7
CYP1A staining intensity in liver by IHC [6]: most intense staining
recognition of core vertebrate CYP1A peptide by ELISA [7]: recognized this peptide sequence

— patent publication US12534540B2, “CYP1A1-targeted monoclonal antibody with reactivity across vertebrate taxa” (Clemson University Research Foundation, priority 2023, dated 2026)
